Key:
[1] = biological target: human C-MET on stably transfected CHO-K1 cells (human) (UniProt P08581); experiment: flow cytometry, C-MET CHO-K1 cells
[2] = biological target: cynomolgus monkey C-MET on stably transfected CHO-K1 cells (cynomolgus monkey); experiment: flow cytometry, C-MET CHO-K1 cells
[3] = biological target: human C-MET His tagged, monomeric (human) (UniProt P08581); experiment: SPR Biacore, IgG captured, monomeric C-MET-His analyte
[4] = biological target: cynomolgus monkey C-MET His tag, monomeric (cynomolgus monkey); experiment: as above
Sequence of cynomolgus monkey C-MET His tag, monomeric (cynomolgus monkey) (A0M8R7 25-932 S170N/I621T): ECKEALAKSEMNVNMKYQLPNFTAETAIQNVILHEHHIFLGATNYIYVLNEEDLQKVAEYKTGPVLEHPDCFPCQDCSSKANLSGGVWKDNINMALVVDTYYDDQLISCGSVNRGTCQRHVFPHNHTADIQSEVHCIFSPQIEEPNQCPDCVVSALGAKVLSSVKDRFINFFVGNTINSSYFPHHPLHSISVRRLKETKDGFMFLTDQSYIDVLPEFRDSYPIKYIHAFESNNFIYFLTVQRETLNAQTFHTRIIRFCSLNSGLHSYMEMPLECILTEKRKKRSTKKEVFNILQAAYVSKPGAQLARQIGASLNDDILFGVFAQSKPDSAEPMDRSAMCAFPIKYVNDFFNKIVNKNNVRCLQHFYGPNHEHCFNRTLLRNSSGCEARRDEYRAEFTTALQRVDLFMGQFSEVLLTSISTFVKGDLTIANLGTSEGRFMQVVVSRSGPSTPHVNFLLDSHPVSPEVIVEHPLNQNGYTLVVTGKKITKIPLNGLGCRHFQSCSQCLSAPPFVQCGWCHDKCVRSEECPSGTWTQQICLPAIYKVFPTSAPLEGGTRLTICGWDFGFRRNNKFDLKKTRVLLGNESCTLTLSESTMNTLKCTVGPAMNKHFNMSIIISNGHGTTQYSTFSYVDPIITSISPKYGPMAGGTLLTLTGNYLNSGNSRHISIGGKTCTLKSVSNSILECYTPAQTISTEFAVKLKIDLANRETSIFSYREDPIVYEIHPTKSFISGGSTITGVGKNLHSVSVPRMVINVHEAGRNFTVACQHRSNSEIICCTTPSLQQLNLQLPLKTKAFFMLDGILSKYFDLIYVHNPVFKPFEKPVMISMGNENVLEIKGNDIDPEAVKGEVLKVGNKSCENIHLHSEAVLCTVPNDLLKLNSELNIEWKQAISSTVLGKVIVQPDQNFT

[5] = biological target: cynomolgus monkey C-MET His tag, monomeric (cynomolgus monkey); experiment: SPR Biacore, monomeric cyno against monomeric human C-MET

Sequence of human C-MET on stably transfected CHO-K1 cells (human) (P08581 25-1390 limits assumed): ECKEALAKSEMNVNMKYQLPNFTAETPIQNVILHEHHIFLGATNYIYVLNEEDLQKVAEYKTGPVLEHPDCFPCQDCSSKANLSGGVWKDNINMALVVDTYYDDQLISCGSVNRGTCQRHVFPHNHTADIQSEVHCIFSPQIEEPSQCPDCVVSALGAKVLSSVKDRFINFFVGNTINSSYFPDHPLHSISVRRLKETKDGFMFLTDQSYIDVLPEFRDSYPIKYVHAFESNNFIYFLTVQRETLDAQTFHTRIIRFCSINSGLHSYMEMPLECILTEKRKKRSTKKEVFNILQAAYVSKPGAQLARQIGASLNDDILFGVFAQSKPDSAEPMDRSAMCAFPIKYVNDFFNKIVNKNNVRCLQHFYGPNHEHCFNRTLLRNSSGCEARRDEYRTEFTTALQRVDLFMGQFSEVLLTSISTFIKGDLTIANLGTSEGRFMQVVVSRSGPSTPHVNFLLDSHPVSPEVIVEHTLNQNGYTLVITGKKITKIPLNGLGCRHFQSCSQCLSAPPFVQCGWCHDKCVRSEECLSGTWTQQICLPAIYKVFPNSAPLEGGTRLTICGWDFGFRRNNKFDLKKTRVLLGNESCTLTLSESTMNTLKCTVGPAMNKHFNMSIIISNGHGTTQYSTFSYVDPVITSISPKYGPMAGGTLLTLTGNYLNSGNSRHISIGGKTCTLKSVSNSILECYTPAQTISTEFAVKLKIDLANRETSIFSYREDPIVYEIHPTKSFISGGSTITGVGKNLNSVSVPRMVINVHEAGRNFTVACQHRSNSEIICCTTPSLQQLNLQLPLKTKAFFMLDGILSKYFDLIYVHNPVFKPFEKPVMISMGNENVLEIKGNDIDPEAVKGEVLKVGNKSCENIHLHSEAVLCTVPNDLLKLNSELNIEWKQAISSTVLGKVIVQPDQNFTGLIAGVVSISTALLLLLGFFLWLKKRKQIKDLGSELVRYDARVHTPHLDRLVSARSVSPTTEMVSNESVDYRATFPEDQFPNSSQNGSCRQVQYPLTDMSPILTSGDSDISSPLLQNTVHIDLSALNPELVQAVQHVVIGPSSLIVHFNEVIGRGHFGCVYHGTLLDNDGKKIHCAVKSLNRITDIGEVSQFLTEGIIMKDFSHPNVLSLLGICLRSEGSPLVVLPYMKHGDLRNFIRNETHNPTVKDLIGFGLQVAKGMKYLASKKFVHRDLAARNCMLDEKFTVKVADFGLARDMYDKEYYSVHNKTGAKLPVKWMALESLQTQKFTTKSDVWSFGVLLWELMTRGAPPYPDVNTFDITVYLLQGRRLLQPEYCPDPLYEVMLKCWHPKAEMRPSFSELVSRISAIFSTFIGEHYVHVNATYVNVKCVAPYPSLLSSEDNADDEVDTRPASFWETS
Sequence of cynomolgus monkey C-MET on stably transfected CHO-K1 cells (cynomolgus monkey) (A0M8R7 25-1381 S170N/I621T limits assumed): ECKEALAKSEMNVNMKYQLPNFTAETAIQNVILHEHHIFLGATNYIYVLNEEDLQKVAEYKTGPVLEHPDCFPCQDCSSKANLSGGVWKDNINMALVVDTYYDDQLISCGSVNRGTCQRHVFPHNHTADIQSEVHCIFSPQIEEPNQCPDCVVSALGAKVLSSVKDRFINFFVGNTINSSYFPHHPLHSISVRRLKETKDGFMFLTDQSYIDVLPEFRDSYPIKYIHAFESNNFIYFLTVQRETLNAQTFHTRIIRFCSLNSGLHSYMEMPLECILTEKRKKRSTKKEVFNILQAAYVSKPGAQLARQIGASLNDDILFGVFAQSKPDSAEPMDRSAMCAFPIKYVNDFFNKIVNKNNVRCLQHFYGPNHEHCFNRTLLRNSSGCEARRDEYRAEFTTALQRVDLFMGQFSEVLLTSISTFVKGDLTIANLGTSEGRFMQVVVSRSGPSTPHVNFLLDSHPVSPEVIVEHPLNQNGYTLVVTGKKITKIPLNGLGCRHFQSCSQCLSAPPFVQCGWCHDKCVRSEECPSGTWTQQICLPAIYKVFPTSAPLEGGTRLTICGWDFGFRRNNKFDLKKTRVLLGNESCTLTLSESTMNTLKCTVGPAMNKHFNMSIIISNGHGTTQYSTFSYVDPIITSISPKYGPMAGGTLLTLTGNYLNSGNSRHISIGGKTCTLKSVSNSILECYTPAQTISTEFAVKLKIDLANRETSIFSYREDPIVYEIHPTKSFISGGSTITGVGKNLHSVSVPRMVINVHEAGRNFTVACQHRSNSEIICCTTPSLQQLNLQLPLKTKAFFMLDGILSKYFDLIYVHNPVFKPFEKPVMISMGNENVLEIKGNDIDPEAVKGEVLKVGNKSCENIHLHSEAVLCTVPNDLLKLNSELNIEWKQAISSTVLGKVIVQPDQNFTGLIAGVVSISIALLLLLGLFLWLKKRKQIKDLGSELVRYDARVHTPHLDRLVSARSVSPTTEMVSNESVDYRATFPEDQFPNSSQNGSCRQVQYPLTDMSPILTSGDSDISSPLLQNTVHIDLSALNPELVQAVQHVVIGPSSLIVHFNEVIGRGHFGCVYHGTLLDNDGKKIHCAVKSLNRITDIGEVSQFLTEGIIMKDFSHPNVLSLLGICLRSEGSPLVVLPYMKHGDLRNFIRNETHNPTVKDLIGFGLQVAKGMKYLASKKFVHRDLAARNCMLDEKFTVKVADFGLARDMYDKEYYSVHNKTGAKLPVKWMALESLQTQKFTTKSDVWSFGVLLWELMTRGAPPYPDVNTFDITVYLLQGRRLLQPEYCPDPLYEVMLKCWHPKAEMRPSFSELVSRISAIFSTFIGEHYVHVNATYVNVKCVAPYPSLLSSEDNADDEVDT
Sequence of human C-MET His tagged, monomeric (human) (P08581 25-932): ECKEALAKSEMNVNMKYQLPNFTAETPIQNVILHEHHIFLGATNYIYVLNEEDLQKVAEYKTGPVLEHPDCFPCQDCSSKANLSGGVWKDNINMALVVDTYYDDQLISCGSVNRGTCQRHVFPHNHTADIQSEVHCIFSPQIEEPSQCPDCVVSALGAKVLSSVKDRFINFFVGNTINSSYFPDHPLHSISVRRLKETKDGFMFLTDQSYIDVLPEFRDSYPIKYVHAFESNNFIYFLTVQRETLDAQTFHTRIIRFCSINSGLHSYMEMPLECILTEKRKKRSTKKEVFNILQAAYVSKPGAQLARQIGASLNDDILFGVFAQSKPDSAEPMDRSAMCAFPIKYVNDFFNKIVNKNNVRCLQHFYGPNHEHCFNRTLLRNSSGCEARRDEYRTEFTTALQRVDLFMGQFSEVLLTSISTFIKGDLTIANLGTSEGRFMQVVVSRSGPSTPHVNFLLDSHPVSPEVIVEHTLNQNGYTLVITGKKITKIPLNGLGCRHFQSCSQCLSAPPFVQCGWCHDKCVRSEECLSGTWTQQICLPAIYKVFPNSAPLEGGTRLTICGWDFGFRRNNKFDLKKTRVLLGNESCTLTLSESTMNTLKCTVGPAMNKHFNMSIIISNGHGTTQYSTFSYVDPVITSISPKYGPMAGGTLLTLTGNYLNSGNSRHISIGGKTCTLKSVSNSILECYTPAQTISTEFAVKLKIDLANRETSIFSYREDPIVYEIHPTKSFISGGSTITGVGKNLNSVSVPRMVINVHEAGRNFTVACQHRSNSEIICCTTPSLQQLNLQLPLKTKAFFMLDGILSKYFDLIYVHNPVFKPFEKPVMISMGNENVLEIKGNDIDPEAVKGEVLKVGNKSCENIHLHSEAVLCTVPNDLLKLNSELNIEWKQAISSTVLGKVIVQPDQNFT

B1: 09A12 (antibody, IgG4, V domains shown)
VH: QVQLVQSGAEVKKPGASVKVSCKASGYTFTSYSMHWVRQAPGQGLEWMGWINPNGGLTNYAQKFRGRVTMTRDTSTSTVYMELSSLRSEDTAVYYCAREEITTEFDYWGQGTLVTVSS
VL: EIVLTQSPGTLSLSPGERATLSCRASQSVSSYAQSYLHWYQQKPGQAPRLLIYRASTRETGIPDRFSGSGSGTDFTLTISRLEPEDFAVYYCQQSKESPLTFGGGTKVEIK
[1]
  EC50: 2.33 nM
  maximum MFI, fold over Isotype IgG4 background: > 10 fold
[2]
  EC50: 0.28 nM
  maximum MFI, fold over Isotype IgG4 background: > 10 fold
[3]
  Kd: 2 nM
  koff: 0.00015 s⁻¹
  kon: 74000 M⁻¹ s⁻¹
[4]
  Kd: 1.5 nM
  koff: 0.00023 s⁻¹
  kon: 160000 M⁻¹ s⁻¹

B2: 07A01 (antibody, IgG4, V domains shown)
VH: QVQLVQSGAEVKKPGASVKVSCKASGYIFTSYTMHWVRQAPGQGLEWMGWINPNGGLASYAQKFQGRVTMTRDTSTSTVYMELSSLRSEDTAVYYCARSEITTEQDYWGQGTLVTVSS
VL: EIVLTQSPGTLSLSPGERATLSCRASQSVDSYANSYLHWYQQKPGQAPRLLIYRGSTRESGIPDRFSGSGSGTDFTLTISRLEPEDFAVYYCQQSKESPLTFGGGTKVEIK
[1]
  EC50: 7.44 nM
  maximum MFI, fold over Isotype IgG4 background: > 10 fold
[2]
  EC50: 1.74 nM
  maximum MFI, fold over Isotype IgG4 background: > 10 fold
[5]
  cyno C-MET affinity, fold of the human C-MET affinity: < 2 fold
[3]
  Kd: 0.24 nM
  koff: 1.3e-05 s⁻¹
  kon: 56000 M⁻¹ s⁻¹
[4]
  Kd: 0.17 nM
  koff: 1.6e-05 s⁻¹
  kon: 94000 M⁻¹ s⁻¹
